From the supplement of paper PMC10567573

B1: TOR1AIP2 (parent)
chain: HHVADAYTSSQKVSPIQIDGAGRT

Variants of: B1
Test: protein stability index of a GFP-peptide fusion (GPS, HEK-293T) (PSI 1-6); higher = more stable
Conditions: c terminus: a fixed tail appended
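Note: lentivirally expressed fusions sorted by FACS into six bins by GFP to DsRed ratio, PSI derived from sequencing read proportions per bin multiplied by bin number.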

Protein stability index: each site, then its substitutions
S14: T 3.22 | F 3.34 | G 3.27 | D 4.07 | K 3.45 | L 3.42 | E 4.13 | P 3.25 | H 3.44 | Y 2.71 | I 2.94 | V 3.46 | A 3.9 | N 4.01 | M 3.25 | W 2.77 | C 3.22 | Q 3.35 | R 3.26
A21: G 3.62 | K 3.42 | H 3.7 | E 3.32 | P 3.48 | V 3.34 | W 2.67 | S 3.67 | R 3.55 | C 3.48 | L 3.42 | I 3.34 | M 3.58 | Q 3.85 | Y 3.22 | T 3.85 | F 3.18 | N 3.44 | D 4.16
G22: A 3.58
G20: T 3.48 | P 3.28 | E 3.36 | H 3.31 | A 3.53 | V 3.33 | S 3.23 | N 3.58 | C 3.19 | D 4.01 | K 3.38 | R 3.38 | F 3.06 | M 3.44 | L 2.78 | W 2.33 | I 3.04 | Y 2.83 | Q 3.7
P15: G 4.04 | E 3.82 | H 3.08 | M 3.25 | L 3.45 | Y 2.55 | N 3.47 | K 3.33 | W 2.63 | V 3.14 | D 3.81 | I 2.77 | A 3.66 | C 3.66 | R 3.26 | Q 3.43 | T 3.28 | S 3.41 | F 2.82
V13: G 3.7 | N 4.32 | P 3.82 | Q 3.85 | Y 3.43 | S 3.79 | K 3.66 | H 3.76 | T 3.8 | R 3.59 | I 2.83 | L 3.56 | W 3.16 | M 3.83
I16: R 3.94 | K 4.04 | N 3.88 | Q 3.69 | P 4.09 | C 3.31 | M 3.38 | Y 3.69 | E 4.51 | H 3.45 | G 3.78 | D 4.46 | F 3.49 | L 3.6 | T 4.13 | W 2.59 | V 4.05 | S 3.78 | A 3.72
D19: G 3.4 | H 2.87 | I 2.54 | T 3.07 | F 2.77 | K 3.14 | L 2.36 | Y 2.47 | P 3.06 | S 3.2 | N 3.34 | R 2.93 | Q 3.75 | E 3.43 | M 2.7 | C 3.1 | V 3.28 | W 1.94 | A 3.01
Q17: V 3.49 | M 2.99 | C 3.26 | E 3.65 | W 2.31 | I 3.05 | H 3.17 | N 3.64 | R 3.72 | K 3.63 | T 3.41 | Y 2.66 | P 3.93 | F 3.05 | D 3.67 | S 3.69 | A 3.55 | L 3.57 | G 3.29
I18: E 3.73 | W 3.26 | S 3.72 | C 3.61 | A 4.03 | T 3.87 | V 3.76 | R 3.58 | M 3.84 | G 3.47 | D 4.28 | F 2.9 | Y 2.97 | K 3.98 | Q 3.75 | N 3.96 | H 3.85 | L 3.57 | P 4.15
